# Test system: Escherichia coli TOP10
# Experiment: shrunken log2 fold change of peptide-encoding DNA abundance (4.5 h post-induction vs induction); higher = less antimicrobial activity (less host growth inhibition)
# Conditions: time post-induction: 4.5 h; library: site-saturation at positions 5, 18, 19, 20
# 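Note: peptides expressed intracellularly from a pBAD plasmid library in pooled LB shake-flask culture, induced with 0.3% L-arabinose, DNA abundance read by NGS, three biological replicates, DESeq2 with apeglm shrinkage.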
row,Sequence,shrunken log2 fold change
1,RRIRWRPPRLPRPRPRPMIGPRP,0.384
2,RRIRIRPPRLPRPRPRPAQPPRP,0.213
3,RRIRYRPPRLPRPRPRPHLQPRP,-0.388
4,RRIRVRPPRLPRPRPRPDCGPRP,-0.0382
5,RRIRPRPPRLPRPRPRPGHMPRP,-0.238
6,RRIRWRPPRLPRPRPRPTSRPRP,0.0324
7,RRIRMRPPRLPRPRPRPLRYPRP,0.856
8,RRIRSRPPRLPRPRPRPIYMPRP,-0.533
9,RRIRLRPPRLPRPRPRPHRQPRP,0.115
10,RRIRQRPPRLPRPRPRPEAGPRP,0.109
11,RRIRHRPPRLPRPRPRPQWSPRP,-0.0854
12,RRIRNRPPRLPRPRPRPWWCPRP,-0.111
13,RRIRWRPPRLPRPRPRPKASPRP,-0.00939
14,RRIRYRPPRLPRPRPRPPSQPRP,0.0859
15,RRIRCRPPRLPRPRPRPSITPRP,-0.641
16,RRIRERPPRLPRPRPRPGDYPRP,-0.0324
17,RRIRMRPPRLPRPRPRPRIYPRP,-0.0363
18,RRIRERPPRLPRPRPRPDMGPRP,-0.265
19,RRIRRRPPRLPRPRPRPPASPRP,0.615
20,RRIRIRPPRLPRPRPRPCWQPRP,-0.211
21,RRIRKRPPRLPRPRPRPIHEPRP,-0.0401
22,RRIRPRPPRLPRPRPRPVYYPRP,-0.348

row,Sequence,shrunken log2 fold change
1,RRIRNRPPRLPRPRPRPNPEPRP,-0.224
2,RRIRWRPPRLPRPRPRPTHAPRP,0.787
3,RRIRLRPPRLPRPRPRPGTNPRP,-0.0983
4,RRIRTRPPRLPRPRPRPMMVPRP,-0.18
5,RRIRDRPPRLPRPRPRPRNGPRP,0.0517
6,RRIRHRPPRLPRPRPRPLNQPRP,-0.17
7,RRIRKRPPRLPRPRPRPGAHPRP,0.663
8,RRIRGRPPRLPRPRPRPWPRPRP,0.37
9,RRIRHRPPRLPRPRPRPIHFPRP,-0.171
10,RRIRNRPPRLPRPRPRPPSMPRP,-0.0213
11,RRIRTRPPRLPRPRPRPFIFPRP,-0.447
12,RRIRDRPPRLPRPRPRPIEVPRP,-0.13
13,RRIRCRPPRLPRPRPRPMRSPRP,0.211
14,RRIRARPPRLPRPRPRPLDKPRP,0.332
15,RRIRERPPRLPRPRPRPPNKPRP,-0.243
16,RRIRQRPPRLPRPRPRPNFAPRP,0.24
17,RRIRDRPPRLPRPRPRPANAPRP,-0.00277
18,RRIRRRPPRLPRPRPRPCEGPRP,-0.0173
19,RRIRDRPPRLPRPRPRPDFEPRP,1.35
20,RRIRQRPPRLPRPRPRPTRIPRP,0.0389
21,RRIRHRPPRLPRPRPRPNFPPRP,-0.189
22,RRIRCRPPRLPRPRPRPPKRPRP,0.797

row,Sequence,shrunken log2 fold change
1,RRIRQRPPRLPRPRPRPSWIPRP,-0.225
2,RRIRERPPRLPRPRPRPTYGPRP,0.158
3,RRIRHRPPRLPRPRPRPAVYPRP,-0.0534
4,RRIRLRPPRLPRPRPRPKMWPRP,0.485
5,RRIRCRPPRLPRPRPRPACWPRP,0.219
6,RRIRMRPPRLPRPRPRPYNQPRP,-0.486
7,RRIRRRPPRLPRPRPRPVCLPRP,0.149
8,RRIRRRPPRLPRPRPRPGVPPRP,0.264
9,RRIRHRPPRLPRPRPRPMPAPRP,0.337
10,RRIRTRPPRLPRPRPRPFPVPRP,-0.177
11,RRIRYRPPRLPRPRPRPDCIPRP,-0.501
12,RRIRTRPPRLPRPRPRPNRGPRP,-0.0939
13,RRIRSRPPRLPRPRPRPAVIPRP,-0.593
14,RRIRRRPPRLPRPRPRPAHNPRP,0.344
15,RRIRCRPPRLPRPRPRPLETPRP,-0.012
16,RRIRRRPPRLPRPRPRPLLEPRP,0.534
17,RRIRERPPRLPRPRPRPNWYPRP,-0.563
18,RRIRVRPPRLPRPRPRPMPDPRP,0.00211
19,RRIRKRPPRLPRPRPRPFRPPRP,-0.0332
20,RRIRDRPPRLPRPRPRPLIRPRP,-0.0502
21,RRIRKRPPRLPRPRPRPWMRPRP,0.373
22,RRIRCRPPRLPRPRPRPIATPRP,0.366

row,Sequence,shrunken log2 fold change
1,RRIRARPPRLPRPRPRPEYDPRP,0.695
2,RRIRERPPRLPRPRPRPRCSPRP,0.0243
3,RRIRYRPPRLPRPRPRPDMSPRP,-0.0894
4,RRIRDRPPRLPRPRPRPSQHPRP,-0.343
5,RRIRGRPPRLPRPRPRPNADPRP,2.38
6,RRIRNRPPRLPRPRPRPFDMPRP,-0.0725
7,RRIRFRPPRLPRPRPRPLCQPRP,-0.12
8,RRIRERPPRLPRPRPRPKMKPRP,-0.226
9,RRIRMRPPRLPRPRPRPCNQPRP,-0.0399
10,RRIRRRPPRLPRPRPRPQNHPRP,-0.191
11,RRIRGRPPRLPRPRPRPDCHPRP,0.217
12,RRIRRRPPRLPRPRPRPLRHPRP,0.558
13,RRIRIRPPRLPRPRPRPQTSPRP,-0.404
14,RRIRVRPPRLPRPRPRPFRMPRP,-0.247
15,RRIRFRPPRLPRPRPRPQNRPRP,-0.536
16,RRIRYRPPRLPRPRPRPGKKPRP,-0.00101
17,RRIRWRPPRLPRPRPRPYYDPRP,-0.262
18,RRIRPRPPRLPRPRPRPYQFPRP,-0.114
19,RRIRPRPPRLPRPRPRPFSYPRP,-0.192
20,RRIRSRPPRLPRPRPRPYSNPRP,-0.549
21,RRIRNRPPRLPRPRPRPSFFPRP,-0.367
22,RRIRLRPPRLPRPRPRPKMYPRP,-0.14

row,Sequence,shrunken log2 fold change
1,RRIRIRPPRLPRPRPRPMLMPRP,-0.515
2,RRIRHRPPRLPRPRPRPSGNPRP,-0.199
3,RRIRKRPPRLPRPRPRPRLLPRP,0.517
4,RRIRMRPPRLPRPRPRPCAEPRP,2.31
5,RRIRPRPPRLPRPRPRPCCKPRP,-0.247
6,RRIRCRPPRLPRPRPRPKIKPRP,-0.287
7,RRIRYRPPRLPRPRPRPWIWPRP,-0.000921
8,RRIRIRPPRLPRPRPRPKPVPRP,0.101
9,RRIRVRPPRLPRPRPRPSSGPRP,-0.39
10,RRIRPRPPRLPRPRPRPHELPRP,-0.0456
11,RRIRCRPPRLPRPRPRPRTCPRP,0.0191
12,RRIRSRPPRLPRPRPRPFFSPRP,-0.13
13,RRIRIRPPRLPRPRPRPFPDPRP,-0.131
14,RRIRCRPPRLPRPRPRPFWTPRP,-0.317
15,RRIRVRPPRLPRPRPRPMFPPRP,0.086
16,RRIRYRPPRLPRPRPRPTRCPRP,0.175
17,RRIRPRPPRLPRPRPRPDSYPRP,-0.422
18,RRIRRRPPRLPRPRPRPDFLPRP,1.31
19,RRIRNRPPRLPRPRPRPTQMPRP,0.0452
20,RRIRMRPPRLPRPRPRPFKHPRP,-0.306
21,RRIRVRPPRLPRPRPRPHNHPRP,-0.468

# Source: the supplement of paper PMC9112550, “Optimization of the antimicrobial peptide Bac7 by deep mutational scanning” (BMC Biology, 2022)
